# Reference: patent US20040037843A1
# Target: HLA-A*2401 (purified HLA class I molecule) (human)
# Assay: not given
# Conditions: not given
row,relative binding ratio (IC50 of standard peptide / IC50 of test peptide),Substance
1,0.019,"PSM (prostate specific membrane antigen) peptide, position 31, 9 amino acids"
2,0.0026,"PSM (prostate specific membrane antigen) peptide, position 32, 10 amino acids"
3,1.1,"PSM (prostate specific membrane antigen) peptide, position 565, 10 amino acids"
4,0.0002,"PSM (prostate specific membrane antigen) peptide, position 582, 10 amino acids"
5,0.001,"PSM (prostate specific membrane antigen) peptide, position 621, 9 amino acids (from UniProt Q04609 621-629)"

# Target: HLA-A*2401 (human)
# Assay: not given
# Conditions: scale: ratio
row,relative binding ratio (A*2401),Substance
1,2.1,"PSA (Prostate Specific Antigen) peptide, position 2, 9 amino acids"
2,0.0062,"PSA (Prostate Specific Antigen) peptide, position 2, 10 amino acids"
3,0.11,"PSA (Prostate Specific Antigen) peptide, position 9, 9 amino acids"
4,0.36,"PSA (Prostate Specific Antigen) peptide, position 9, 10 amino acids"
5,3.2,"PSM (Prostate Specific Membrane Antigen) peptide, position 624, 10 amino acids"

# Target: HLA-A*2401 (purified HLA class I molecule) (human)
# Assay: competition with 125I-labelled standard peptide for purified HLA, gel filtration
# Conditions: not given
row,Substance,relative binding ratio (IC50 of standard peptide / IC50 of test peptide)
1,"PAP position 297, 10 amino acids (peptide)",0.0001
2,"PSA position 2, 9 amino acids (peptide)",2.1
3,"PSA position 9, 9 amino acids (peptide)",0.11
4,"PSA position 9, 10 amino acids (peptide)",0.36
5,"PSA position 54, 10 amino acids (peptide)",0.0007
6,"PSM position 178, 9 amino acids (peptide)",0.77
7,"PSM position 638, 9 amino acids (peptide)",0.0001

# Next, values leading:
row,relative binding ratio (IC50 of standard peptide / IC50 of test peptide),Substance
1,0.0062,"PSA position 2, 10 amino acids (peptide)"
2,0.12,"PSA position 96, 11 amino acids (peptide)"
3,0.0001,"PSA position 224, 9 amino acids (peptide)"
4,0.23,"PSM position 74, 10 amino acids (peptide)"
5,0.44,"PSM position 227, 9 amino acids (peptide)"
6,3.2,"PSM position 624, 10 amino acids (peptide)"
7,0.0075,"PSM position 668, 9 amino acids (peptide)"

# Target: HLA-A*6802 (human)
# Assay: as above
# Conditions: not given
row,relative binding ratio,Substance
1,0.0013,"PSM position 168, 10 amino acids (peptide)"

# Target: HLA-A*2401 (human)
# Assay: competition with 125I-labelled probe peptide for purified HLA, gel filtration
# Conditions: not given
row,relative binding ratio (IC50 of standard peptide / IC50 of test peptide),Substance
1,0.0022,"PAP position 70, 10 amino acids (peptide)"
2,0.12,"PSA position 96, 11 amino acids (peptide)"
3,0.23,"PSM position 74, 10 amino acids (peptide)"
4,0.44,"PSM position 227, 9 amino acids (peptide)"
5,12,"PSM position 606, 9 amino acids (peptide)"
6,0.0075,"PSM position 668, 9 amino acids (peptide)"

# Target: HLA-A*0101 (human)
# Assay: not given
# Conditions: not given
row,relative binding ratio (IC50 of standard peptide / IC50 of test peptide),Substance
1,0.016,"PSM peptide, position 196, 10 amino acids"

# Target: HLA-A*2401 (human)
# Assay: not given
# Conditions: not given
row,relative binding ratio (IC50 of standard peptide / IC50 of test peptide),Substance
1,0.031,"PSA position 190, 9 amino acids (…) (peptide)"
2,0.054,"PSM position 409, 10 amino acids (…) (peptide)"

# Target: HLA-A*2401 (human)
# Assay: not given
# Conditions: not given
# Remark: another data set of the same source
row,relative binding ratio (IC50 of standard peptide / IC50 of test peptide),Substance
1,0.0007,"PSA peptide, position 91, 9 amino acids (A24 supermotif)"
2,0.0001,"PSA peptide, position 224, 9 amino acids (A24 supermotif)"

# Target: HLA-A*0101 (purified HLA class I molecule) (human)
# Assay: not given
# Conditions: not given
row,relative binding ratio (IC50 of standard peptide / IC50 of test peptide),Substance
1,0.016,"PSM peptide, position 196, 10 amino acids (A1 supermotif)"

# Target: HLA-A*2401 (purified HLA class I molecule) (human)
# Assay: competition with 125I-labelled probe peptide on purified HLA, gel filtration
# Conditions: not given
row,Substance,relative binding ratio (IC50 of standard peptide / IC50 of test peptide)
1,"PAP peptide, position 163, 10 amino acids",0.0001
2,"PAP peptide, position 183, 9 amino acids",0.11
3,"PAP peptide, position 355, 10 amino acids",0.0037
4,"PSM peptide, position 178, 9 amino acids",0.77
5,"PSM peptide, position 638, 9 amino acids",0.0001

# The remaining lines, values ahead:
row,relative binding ratio (IC50 of standard peptide / IC50 of test peptide),Substance
1,0.0001,"PAP peptide, position 297, 10 amino acids"
2,0.024,"PAP peptide, position 309, 10 amino acids"
3,0.0007,"PSA peptide, position 54, 10 amino acids"

# Target: HLA-A*0206 (human)
# Assay: competition with 125I-labelled standard peptide for purified HLA
# Conditions: not given
row,IC50 [µM],Substance
1,0.502,"peptide 1419.24, PSA.166.V10"

# Target: HLA-A*6802 (human)
# Assay: as above
# Conditions: not given
row,IC50 [µM],Substance
1,0.976,"peptide 1126.01, PSM.663"
2,1.54,"peptide 1129.10, PSM.288"

# Target: HLA-A*2401 (human)
# Assay: competition with 125I-labelled probe peptide for purified HLA, gel filtration
# Conditions: not given
# Remark: another data set of the same source
row,Substance,relative binding ratio (IC50 of standard peptide / IC50 of test peptide)
1,"PSA position 98, 9 amino acids (peptide)",0.0001
2,"PSA position 190, 9 amino acids (peptide)",0.031
3,"PSM position 31, 9 amino acids (printed as 8 in Table XVIII) (peptide)",0.019
4,"PSM position 32, 10 amino acids (peptide)",0.0026
5,"PSM position 409, 10 amino acids (peptide)",0.054
6,"PSM position 448, 9 amino acids (peptide)",0.019
7,"PSM position 582, 10 amino acids (peptide)",0.0002
8,"PSM position 621, 9 amino acids (peptide)",0.001

# Further lines, results first:
row,relative binding ratio (IC50 of standard peptide / IC50 of test peptide),Substance
1,1.1,"PSM position 565, 10 amino acids (peptide)"
2,12,"PSM position 606, 9 amino acids (peptide)"
